Columns and labels:
[1] = target: His-tagged YvmB protein (MarR-like regulator YvmB, renamed PchR) (B. subtilis); experiment: SEC; purified YvmB^His-tag fractionated on a Superdex 200 gel-filtration column; major peak with an apparent molecular mass compared with the 19.2 kDa polypeptide; no effector added
[2] = target: T1, YvmB-His6 (PchR) (Bacillus subtilis (BSB1, trp+ 168 derivative?)) (UniProt P40762); experiment: EMSA; settings: apparent Kd; EMSA: 1x = 20 mM Tris pH 8, 100 mM KCl, 0.5 mM DTT, 5 mM MgCl2, 0.05 mg/ml BSA, 0.05 mg/ml poly(dIdC) (from 5x buffer); 50 ng Cy5 DNA in 20 uL; 20 min at 30 C …
T1 sequence: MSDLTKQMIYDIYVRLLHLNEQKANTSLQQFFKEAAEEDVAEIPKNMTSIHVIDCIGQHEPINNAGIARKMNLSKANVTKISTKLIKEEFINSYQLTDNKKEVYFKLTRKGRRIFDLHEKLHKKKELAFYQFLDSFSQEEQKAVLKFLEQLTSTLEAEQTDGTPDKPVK

[3] = target: T2, YvmB-His6 (PchR) (Bacillus subtilis (BSB1, trp+ 168 …, UniProt P40762 1-169)); experiment: EMSA; one complex; apparent Kd; EMSA: 1x = 20 mM Tris pH 8, 100 mM KCl, 0.5 mM DTT, 5 mM MgCl2, 0.05 mg/ml BSA, 0.05 mg/ml poly(dIdC) (from 5x buffer); 50 ng Cy5 DNA in 20 uL; 20 min at 30 C; settings: protein: recombinant; tags: C-terminal His6; chain copies: 2; label: 5' Cy5
T2 sequence: T1 sequence

[4] = target: T2, YvmB-His6 (PchR); experiment: EMSA; two complexes; EMSA: 1x = 20 mM Tris pH 8, 100 mM KCl, 0.5 mM DTT, 5 mM MgCl2, 0.05 mg/ml BSA, 0.05 mg/ml poly(dIdC) (from 5x buffer); 50 ng Cy5 DNA in 20 uL; 20 min at 30 C; settings: protein: recombinant; tags: C-terminal His6; chain copies: 2; label: 5' Cy5

His-tagged YvmB protein (MarR-like regulator YvmB, renamed PchR) (natural protein)
stoichiometry N [1]: 2

P-yisI probe
Kd [2]: 2.5 nM

B1: P1 probe (yvmB-yvmC intergenic, palindrome I) (dsDNA)
DNA 1: TTCCAAATGTTTTTTAAGATTTTAATAATCATTTTCAATACCCATATCATGATAAATGTTTACTAGTAAACATTAGTCATTTTATCCCTTTTCCTTCCAAACGTCAATAT
DNA 2: ATATTGACGTTTGGAAGGAAAAGGGATAAAATGACTAATGTTTACTAGTAAACATTTATCATGATATGGGTATTGAAAATGATTATTAAAATCTTAAAAAACATTTGGAA
Kd [3]: 5 nM

B2: P2 probe (yvmB-yvmC intergenic, palindrome II) (dsDNA)
DNA 1: CCAACAATTGACAACGAAAACAAGAAAAGATAAAATAAAATTGTTCACCAGTAAACGATTTGTTTTATTGTTTCATCGTAAACTATTATTCCTAAGAAAGAAGGTAGCCT
DNA 2: AGGCTACCTTCTTTCTTAGGAATAATAGTTTACGATGAAACAATAAAACAAATCGTTTACTGGTGAACAATTTTATTTTATCTTTTCTTGTTTTCGTTGTCAATTGTTGG
binding result [4]: binds

Source: paper PMC4992311, “The MarR-like protein PchR (YvmB) regulates expression of genes involved in pulcherriminic acid biosynthesis and in the initiation of sporulation in Bacillus subtilis”
